Data reported in US20200024330A1.

Legend:
Test in all cases: cell-based or functional assay
[1] = molecular target: HIV-1 92UG024 envelope glycoprotein (Env) on pseudovirus (HIV-1)
[2] = molecular target: HIV-1 92TH021 envelope glycoprotein (Env) on pseudovirus (HIV-1)
[3] = molecular target: HIV-1 Env of isolate MGRM-AE-007 (HIV-1)
[4] = molecular target: HIV-1 Env of isolate MGRM-Chronic-B-012 (HIV-1)
[5] = molecular target: HIV-1 Env of isolate MGRM-AE-004 (HIV-1)
[6] = molecular target: HIV-1 Env of isolate MGRM-G-006 (HIV-1)
[7] = molecular target: HIV-1 93UG077 envelope protein (Env) on pseudovirus (HIV-1)
[8] = molecular target: HIV-1 Env of isolate MGRM-AG-001 (HIV-1)
[9] = molecular target: HIV-1 Env of pseudovirus TRO.11 (Acute), clade B (HIV-1)
[10] = molecular target: HIV-1 92BR020 envelope glycoprotein (Env) on pseudovirus (HIV-1)
[11] = molecular target: HIV-1 Env of isolate MGRM-Chronic-B-020 (HIV-1)
[12] = molecular target: HIV-1 Env of isolate MGRM-AG-013 (HIV-1)
[13] = molecular target: HIV-1 MGRM-A-010 envelope glycoprotein (Env) (HIV-1)
[14] = molecular target: HIV-1 Env of isolate MGRM-AG-008 (HIV-1)
[15] = molecular target: HIV-1 Env of isolate MGRM-AE-006 (HIV-1)
[16] = molecular target: HIV-1 Env of isolate MGRM-AG-009 (HIV-1)
[17] = molecular target: HIV-1 Env of isolate MGRM-AG-005 (HIV-1)
[18] = molecular target: HIV-1 Env of isolate MGRM-G-001 (HIV-1)
[19] = molecular target: aMLV envelope (negative control pseudovirus)
[20] = molecular target: HIV-1 Env of isolate MGRM-Chronic-B-024 (HIV-1)
[21] = molecular target: HIV-1 Env of isolate MGRM-AG-006 (HIV-1)
[22] = molecular target: HIV-1 Env of isolate JRFL (HIV-1)
[23] = molecular target: HIV-1 Env of isolate MGRM-AG-003 (HIV-1)
[24] = molecular target: HIV-1 Env of isolate MGRM-AE-005 (HIV-1)
[25] = molecular target: HIV-1 Env of isolate MGRM-AG-012 (HIV-1)
[26] = molecular target: HIV-1 Env of isolate MGRM-Chronic-B-017 (HIV-1)
[27] = molecular target: HIV-1 Env of isolate MGRM-G-004 (HIV-1)
[28] = molecular target: HIV-1 Env of isolate MGRM-Chronic-B-010 (HIV-1)
[29] = molecular target: HIV-1 Env of isolate MGRM-D-011 (clade D) (HIV-1)
[30] = molecular target: HIV-1 Env of isolate MGRM-AG-011 (HIV-1)
[31] = molecular target: HIV-1 Env of isolate MGRM-AE-008 (HIV-1)
[32] = molecular target: HIV-1 Env of isolate MGRM-G-009 (HIV-1)
[33] = molecular target: HIV-1 Env of isolate MGRM-AG-002 (HIV-1)
[34] = molecular target: HIV-1 NL43 envelope glycoprotein (Env) on pseudovirus (HIV-1)
[35] = molecular target: HIV-1 Env of isolate MGRM-Chronic-B-018 (HIV-1)
[36] = molecular target: HIV-1 Env of isolate MGRM-Chronic-B-011 (HIV-1)
[37] = molecular target: HIV-1 92RW020 envelope glycoprotein (Env) on pseudovirus (HIV-1)
[38] = molecular target: HIV-1 Env of isolate MGRM-Chronic-B-023 (HIV-1)

Substance | IC90 (pseudovirus neutralization) [1] [µg/mL] | IC90 (pseudovirus neutralization) [2] [µg/mL] | IC50 (µg/ml), pseudovirus neutralization [3] [µg/mL] | IC50 (µg/ml), pseudovirus neutralization [4] [µg/mL] | IC50 (µg/ml), pseudovirus neutralization [5] [µg/mL] | IC50 (µg/ml), pseudovirus neutralization [6] [µg/mL] | neutralization IC50 [7] [µg/mL] | IC50 (µg/ml), pseudovirus neutralization [8] [µg/mL] | IC50 (µg/ml), pseudovirus neutralization [9] [µg/mL] | IC90 (pseudovirus neutralization) [10] [µg/mL] | IC50 (µg/ml), pseudovirus neutralization [11] [µg/mL] | IC50 (µg/ml), pseudovirus neutralization [12] [µg/mL] | IC50 (µg/ml), pseudovirus neutralization [13] [µg/mL] | IC50 (µg/ml), pseudovirus neutralization [14] [µg/mL] | IC50 (µg/ml), pseudovirus neutralization [15] [µg/mL] | IC50 (µg/ml), pseudovirus neutralization [16] [µg/mL] | IC50 (µg/ml), pseudovirus neutralization [17] [µg/mL] | IC50 (µg/ml), pseudovirus neutralization [18] [µg/mL] | IC50 (µg/ml), pseudovirus neutralization [19] [µg/mL] | IC50 (µg/ml), pseudovirus neutralization [20] [µg/mL] | also measured
4E10 (antibody) | 23.7 | 23.5 | 0.45 | 48 | 1.27 | 1.23 | 11.2 | 1.12 | 1.39 | > 50 | 2.45 | 2.61 | 14.4 | 1.48 | 0.23 | 31.4 | 2.13 | 2.04 | > 50 | 9.19 | IC50 (µg/ml), pseudovirus neutralization [21]: 1.76 µg/mL; IC50 (µg/ml), pseudovirus neutralization [22]: 18.9 µg/mL; IC50 (µg/ml), pseudovirus neutralization [23]: 0.64 µg/mL; IC50 (µg/ml), pseudovirus neutralization [24]: 0.47 µg/mL; IC50 (µg/ml), pseudovirus neutralization [25]: 0.86 µg/mL; IC50 (µg/ml), pseudovirus neutralization [26]: 2.77 µg/mL; IC50 (µg/ml), pseudovirus neutralization [27]: 1.47 µg/mL; IC50 (µg/ml), pseudovirus neutralization [28]: 1.69 µg/mL; IC50 (µg/ml), pseudovirus neutralization [29]: 0.91 µg/mL; IC50 (µg/ml), pseudovirus neutralization [30]: 1.36 µg/mL; IC50 (µg/ml), pseudovirus neutralization [31]: 0.94 µg/mL; IC50 (µg/ml), pseudovirus neutralization [32]: 1.34 µg/mL; IC50 (µg/ml), pseudovirus neutralization [33]: 0.8 µg/mL; IC90 (pseudovirus neutralization) [34]: 29.6 µg/mL; IC50 (µg/ml), pseudovirus neutralization [35]: 23.2 µg/mL; IC50 (µg/ml), pseudovirus neutralization [36]: 1.07 µg/mL; IC90 (pseudovirus neutralization) [37]: 36.1 µg/mL; IC50 (µg/ml), pseudovirus neutralization [38]: 27.9 µg/mL
2F5 (antibody) | 34.4 | 18.8 | 0.07 | 17.6 | 0.98 | 1.33 | 4.45 | 0.75 | > 50 | > 50 | 0.78 | 1.79 | 20.8 | 0.54 | 0.18 | 24.8 | > 50 | 4.1 | > 50 | > 50 | IC50 (µg/ml), pseudovirus neutralization [21]: 0.85 µg/mL; IC50 (µg/ml), pseudovirus neutralization [22]: 3.54 µg/mL; IC50 (µg/ml), pseudovirus neutralization [23]: 0.14 µg/mL; IC50 (µg/ml), pseudovirus neutralization [24]: 0.14 µg/mL; IC50 (µg/ml), pseudovirus neutralization [25]: 0.33 µg/mL; IC50 (µg/ml), pseudovirus neutralization [26]: > 50 µg/mL; IC50 (µg/ml), pseudovirus neutralization [27]: > 50 µg/mL; IC50 (µg/ml), pseudovirus neutralization [28]: 0.96 µg/mL; IC50 (µg/ml), pseudovirus neutralization [29]: > 50 µg/mL; IC50 (µg/ml), pseudovirus neutralization [30]: > 50 µg/mL; IC50 (µg/ml), pseudovirus neutralization [31]: > 50 µg/mL; IC50 (µg/ml), pseudovirus neutralization [32]: 7.21 µg/mL; IC50 (µg/ml), pseudovirus neutralization [33]: 0.54 µg/mL; IC90 (pseudovirus neutralization) [34]: 19.3 µg/mL; IC50 (µg/ml), pseudovirus neutralization [35]: 10.8 µg/mL; IC50 (µg/ml), pseudovirus neutralization [36]: 0.81 µg/mL; IC90 (pseudovirus neutralization) [37]: 27.7 µg/mL; IC50 (µg/ml), pseudovirus neutralization [38]: 0.1 µg/mL
2G12 (antibody) | 7.57 | > 50 | > 50 | 0.22 | > 50 | > 50 | > 50 | 0.69 | 0.29 | 24.1 | 0.2 | 0.95 | 17 | > 50 | > 50 | > 50 | > 50 | > 50 | > 50 | > 50 | IC50 (µg/ml), pseudovirus neutralization [21]: 3.92 µg/mL; IC50 (µg/ml), pseudovirus neutralization [22]: 1.45 µg/mL; IC50 (µg/ml), pseudovirus neutralization [23]: > 50 µg/mL; IC50 (µg/ml), pseudovirus neutralization [24]: > 50 µg/mL; IC50 (µg/ml), pseudovirus neutralization [25]: 1.94 µg/mL; IC50 (µg/ml), pseudovirus neutralization [26]: > 50 µg/mL; IC50 (µg/ml), pseudovirus neutralization [27]: > 50 µg/mL; IC50 (µg/ml), pseudovirus neutralization [28]: 1.5 µg/mL; IC50 (µg/ml), pseudovirus neutralization [29]: 1.5 µg/mL; IC50 (µg/ml), pseudovirus neutralization [30]: > 50 µg/mL; IC50 (µg/ml), pseudovirus neutralization [31]: > 50 µg/mL; IC50 (µg/ml), pseudovirus neutralization [32]: > 50 µg/mL; IC50 (µg/ml), pseudovirus neutralization [33]: 0.54 µg/mL; IC90 (pseudovirus neutralization) [34]: 15.8 µg/mL; IC50 (µg/ml), pseudovirus neutralization [35]: > 50 µg/mL; IC50 (µg/ml), pseudovirus neutralization [36]: > 50 µg/mL; IC90 (pseudovirus neutralization) [37]: 6.23 µg/mL; IC50 (µg/ml), pseudovirus neutralization [38]: 0.16 µg/mL
b12 (antibody) | > 50 | > 50 | > 50 | > 50 | > 50 | > 50 | 41.1 | 11.9 | > 50 | > 50 | 6.16 | > 50 | > 50 | > 50 | > 50 | > 50 | > 50 | > 50 | > 50 | > 50 | IC50 (µg/ml), pseudovirus neutralization [21]: > 50 µg/mL; IC50 (µg/ml), pseudovirus neutralization [22]: 0.02 µg/mL; IC50 (µg/ml), pseudovirus neutralization [23]: > 50 µg/mL; IC50 (µg/ml), pseudovirus neutralization [24]: 0.63 µg/mL; IC50 (µg/ml), pseudovirus neutralization [25]: 10.4 µg/mL; IC50 (µg/ml), pseudovirus neutralization [26]: 2.59 µg/mL; IC50 (µg/ml), pseudovirus neutralization [27]: > 50 µg/mL; IC50 (µg/ml), pseudovirus neutralization [28]: > 50 µg/mL; IC50 (µg/ml), pseudovirus neutralization [29]: 7.75 µg/mL; IC50 (µg/ml), pseudovirus neutralization [30]: > 50 µg/mL; IC50 (µg/ml), pseudovirus neutralization [31]: > 50 µg/mL; IC50 (µg/ml), pseudovirus neutralization [32]: > 50 µg/mL; IC50 (µg/ml), pseudovirus neutralization [33]: 0.89 µg/mL; IC90 (pseudovirus neutralization) [34]: 0.28 µg/mL; IC50 (µg/ml), pseudovirus neutralization [35]: 0.66 µg/mL; IC50 (µg/ml), pseudovirus neutralization [36]: 2.11 µg/mL; IC90 (pseudovirus neutralization) [37]: > 50 µg/mL; IC50 (µg/ml), pseudovirus neutralization [38]: > 50 µg/mL
